Experiment: yeast display, Sf9 membrane polyspecificity reagent, FACS + sequencing; frameworks hold sequencing errors
In short: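 A synthetic nanobody library was expressed on Saccharomyces cerevisiae BJ5465 by galactose induction for 36–48 hours. The library was stained for 1 hour at 4 °C with 10% biotinylated, detergent-solubilized Sf9 membrane reagent and enriched with streptavidin microbeads before FACS. Low and high (top ~1%) gates were set on anti-HA fluorescence for expression and streptavidin fluorescence for reagent binding, and each polyreactivity label reflects the gate of origin.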

Sequence	polyreactivity (PSR sort gate)
QVQLVETGGGLVQAGGSLRLSCAASGFTFTSYAMGWYRQAPGKERELVARITSSTGSTYYADSVKGRFTISRDNAKNTVDLQMNSMKPEDTAVYYCNARRQRNKSYNYWGQGTEVTVSS	high polyreactivity
QVQLVESGGGLVQAGGSLRLSCAASGSTFYYYVMGWYRQAPGKERELVAAISSGGHTNYADSVKGRFTISRDNAKNTVYLQMNSLKPEDTAVYYCAAKPWRGTLLRYGYWGQGTQVTVSS	high polyreactivity
QVQLVESGGGLVQAGGSLRLSCAASGITFYDYAMGWYRQAPGKERELVAAISGGGITYYADSVKGRFTISRDNAKNTVYLQMNSLKPEDTAVYYCAADAYGYGGDSWGQGTQVTVSS	low polyreactivity
QVQLVESGGGLFQAGGSLRLSCAASGFTFAFNAMGWYRQAPGKERELVAGITSGGRTNYADSVKGRFTISRDNGKNTVYLQMNSLKPEDTAVYYCAADRPYYKGYVPPYYKYRYDYWGQGTQVTVSS	high polyreactivity
QVQLVESGGGLVQAGGSLRLSCAASGSTSYVYAMGWYRQAPGKERELVAANSGSGGRTYYADSVKGRFTISRDNAKNTVYLQMNSLKPEDTAVYYCNALTRPSYPFDYWGLGTQVTVSS	high polyreactivity
QVQLVESGGGLVQAGGSLRLSCAASGRIIAKYAMGWYRQAPGKERELVAAINWGGGSTYYADSVKGRFTISRDNAKITVYLQMNSLKPEDTAVYYCNRTPRSKGNYWGQGTQVTVSS	high polyreactivity
QVQLVESGGGLVQAGGSLRLSCAASGSTFRTYAIGWYRQAPAKERELVAAISRSGGRTYYADSVKGRFTISRDNAMNTVYLQMNSLKPEDTAVYYCAVGDTYTYDYWGQGTQVTVSS	high polyreactivity
QVQLVESGGGLVQAGGSLRLSCAASGIILYYYAMGWYRQAPGKERELVAAISSGGNTYYADSVKGRFTISRDNAKNTVYLQMTSLKPEDTAVYYCAAVTVIGGEYDYWGQGTQVTVSS	low polyreactivity
QVQLVESGGGLVQAGGSLRLTCAASGRTFHAYVMGWYRQAPGKERELVADISSGGDTYADSVKGRFTISRDNAKNTVYLQMNSLKPEDTAVYYCAVDVIQDESGYWGQGTQVTVSS	low polyreactivity
QVQLVESGGGLVQAGGSLRLSCAASGSIFYWYAMGWYRQAPGKERELVAAISSGGSTNYADSVKGRFTISRDNAKNTVYLQMNSLKPEDTAVYYCNADVPVRYGPIYFRRLDYWGQGTQVTVSS	low polyreactivity
QVQLVESGGGLVQAGGSLRLSCAASGRIFYPYAMGWYRQAPGKERELVAAITTSSARTYYADSVKGRFTISRDNAKNTVYLQMNSLKPEDTAVYYCAVKRGYYTTYRGYGYWGQGTQVTVSS	high polyreactivity
QVQLVESGGGLVQAGGSLRLSCAASGSILYLNAMGWYRQAPGKERELVASISSSGGNTYYADSVTGRFTISRDNAKNTVYFQMNSLKPEDTAVYYCNTRWVHRDWYDYWGQGTQVTVSS	high polyreactivity
QVQLVESVVGLVQAGVSLRLSCAASGSIFEQYAMGWYRQAPGKERELVAAISKRGTSTYYADSVKGRFTISRDNAKNTVYLQINSLKPEDNAVYDCAATNRWYYRAAASVYAFGYWGLGTQVTVSS	high polyreactivity
QVQLVESGGGLVQAGGSLRLSCAASGLTFPPNAMGWYRQATGKEREFVAVISSGGGSTYYADSVKVRFTISRDNAKNTVYLQMNSLNPEDTAVYYCATEYQDGETEYYYWGQGTQVTVSS	low polyreactivity
QVQLVESGGGLVQAGGSLRLSCAASGRTFRYYTMGWYRQAPGKERELVAAITRNGGRTYYADSVKGRFTISRDNAKNTVDLQMNSLKPEDPAVYYCAPGTYDGGYHYDYWGQGTQVTVSS	high polyreactivity
QVQLVESGGGLVQSGGSLRLSCAASGSILKFNAMVWYRQAPGKERELVAAITRGTNTYYADSVKGRFTISRDNAKNTVYLQMNSLKPEDTAVYYCAARLPYNAIGYYYWGQGTQVTVSS	low polyreactivity
QVQLVESGGGLVQAGGSLRLSCAASGSIFRGYAMGWYRQAPGKERELVAVIRRTSGSTYYADSVKGRFTISRDNAKNTVYLQMNSLKPEDTAVYYCNTLRHSSYPSYGYWGQGTQVTVSS	high polyreactivity
QVQHVDSGGGLVQAGGSLRLSCSASGINFPWYAMGWYRQAPGKERELVAAITSGGSTYYADSVKGRFTISRDNAKNTVYLEMYSLKPEDTAVYYCNADYYSWYLGAYLYDYWGQGTQVTVSS	high polyreactivity
QVQLVESGGGLVQAGGSLRLSCAPSGSIVRGYAMAWYRQAPGKERELVAAINSSGTRTYYADSVKGRFTISRDNAKNTVYFQLYSLKPEDSAVYYCAARAVSEYFVVPFYYWGQGTQVTVSS	high polyreactivity
QVQLVESGGGLVQAGGSLRLSCAASGSIIVYYGMGWYRQAPGKERELVAAISSGGSTHYADSVKGRFTISRDNAKNSVYLQMNSVKPEDTAVYYCAADRFFWLRSYPRYYYWGQGTQVTVSS	low polyreactivity
QDQLGESGGGLVQAGGSLRLSCAASGSTFRYYAMGWYRQAPGKERELLAAITSSGGSTYYADSVKGRFTISRDNAMNTVYLQMNSLNPEDTAVYYCAVAVKNWVKLNYWGQGTQVTVSS	high polyreactivity
QVQLVESGGGVVQAGGSLRLSCAASGSTFTTNAMGWYRQAPGKDREFVAAIRRTSGRTYYADSVKGRFTISRDNAKNTVYLQMNSLKPEDTAVFYCATDSYSPYGLKSRYDYWGQGTQVTVSS	high polyreactivity

Sequence	polyreactivity (PSR sort gate)
QVQLVESGGGLVQAGGSLRLSCAASGRIFGRYAMGWYRQAPGQERELVAGISARGGSTYYADSVKGRFTISRDNAKNTVYLQMNSLKPDDTAVYYCAAYAGFSDQAGYFYWGQGTQVTVSS	high polyreactivity
QVQLVESGGGLVQAGGSLRLSCAAYGSTVSSNAMGWYRQAPGKERELVAGISSSDVGTYYADSVKGRFTISRDYANNTVYLEMNSLKPDDTAVYYCNADHTGQFPSKLFPLGDNYWGQGTQVTVSS	low polyreactivity
QVQLVESGGGLVQAGGSLRLSCAASGSTYRTYAMGWYRPAPGKERELVAAISSSGGSTYYADSVKGRFTISRDNAKNTVYLQMNSLKPEYTAVYYCNAGRSHRPHYDYWGQGTQVTVSS	high polyreactivity
QVQLVESGGGLVQAGGSLRLSCAASGRTFFSNAMGWYRQAPGKERELVAAISNGDNTYFADSVKGRFTISRDNAKNTVYLQMNSLKPEDTAVYYCNTVRRSYWSWSTENSDYWGQGTQVTVSS	low polyreactivity
QDQLVESGGGLVQAGGSLRLSCAASGRIFYRYAMGWYRQAPGKERELVATISRSGGSTNYADSVKGRFTISRDNAKKTVYLQLNSLKPEDTAVYYCAAQYTYRFPYPGYATTHDYWGQGTQVTVSS	high polyreactivity
QVQLVESGGGLVQAGGSLRLSCAASGRIFTKYAMGWYRQAPGKERELVAGISSSGGSTYYADSVKGRFTISRDIAKNTVYLQMNSLKPEDTAVYYCAARGYYKYDYWGQGTQVTVSS	high polyreactivity
QVQLVESGGGLVQAGCSLRLSCAASGSIIIGNAMGWYRKSPGKERELVAVINGSDGTTYYADSVKGRFTNSRDNAKNTVYLQMNSLKPEDTAVYYCNADFIDPSVYDYNYWGQGTQVTVSS	low polyreactivity
QVQLVESGGGLVQAGGSLRLSCAASGYTFTGYAMGWYRQAPGKERELVAAITSIGGSTYYADSVKGRFTISRDNAKTTVYLQMNSLKPEDTAVYYCAKDALVIDGGGGYDYWGQGTQVTVSS	low polyreactivity
QVQLVESGGGLVQAGGSLRLTCAASGYTFVIYSMVWYRQAPGKVRELVAAITTIGGRTYYADSVKGRFTISRDNAKNTVYLQMNSLKPEDTAVYYCAADIRSNRLYDGGYWRQGTQVTVSS	low polyreactivity
QVQLVESGGGLVQAGGSLRLSCAASGITFYRYMGWYRQAPGKERELVASITGRGGSTYYADSVKGRFTISRDNAKNTVYLQMNSLKPEDTAVYYCAAVFPTKSSTWYDYWGQGSQVTVSS	high polyreactivity
QVQLVESGGGLVQAGGSLRLSCAASGRTLVINVMGWYRQAPGKERELVAAISFRSGNTYYADSVKGRFTISRDNAKNTVYLQMNSLKPEDTAVYYCAAYTYRTSTTSSYYYWGQGTQVTVSS	high polyreactivity
QVQLVESGGGLVQAGGSLRLSCAASGLTFRVNAMGWYRQAPGKERELVAVISTDGGTTYYADSVKGRFTISRDNAKNTVYLQINSLKPEDTAVYYCAAKYAQVYIWVRQIHFDYWGQGTQVTVSS	low polyreactivity
QVQLVESGGGLVQAGGSLRLSCAASGSTFFIYTMGWYRQAPGKEREFVAAISWTGGRTYYADSVKGRFTISRDNAKYTVYLQMNSLIPEDTPVYYCAALYKYSSYDYWGQGTQVTVSS	high polyreactivity
QVQLVESGGGLVQAGGSLRLSCAASGSIYSYTMGWYRQAPGKEKELVAAITYSGDSTYYADSVKGRFTISRDNAKNTVYLQMNSLKPDDTAVYYCAKSGTLSEYDYWGQGTQVTVSS	low polyreactivity
QVQLVESGGGLVQAGGSLRLSCAASGFTLYGYTMGWSRQAPGKERELVAAITVSGTSTYYADSVKGRFTISRDNAKYTVSLQMNSLKPEDTAVYYCAARPRRRYYGYDSWGQGTQVSVSS	high polyreactivity
QVQLVESGGGLVQAGGSLRLSCAASGSTFALYVMGRYRQAPGKERELVAAINSVGSKYYADSVKGRFTISRDNAKNTVYLQMHSLKPEDTSVYYCAAVSTYRPGWYYRYNYWGHGTQVTVSS	high polyreactivity
QVQLVESGGGLVQAGGSLRLSCAASGRILYVYAMGWYIQAPGKERELVAAITSGGSTHYADSVKGRFTISRDNAKNTVYLQMNSLKPEDTAVYYCAAYTLRNRGGFNYWGQGTQVTVSS	high polyreactivity
QVQLVESGGALVQAGGSLRLSCAPSGFTFMRYAMGWYRQAPGKERELDAAIRGTGTSTYYADSVKVRFTISRDNAKNTVYLQMNSLNPEDTAVYYCNKVAGRSPYTRYDYWAQGTQVTVSS	low polyreactivity
QVQLVESGGGLVQAGGSLRLSCSASGSTSYYYAMGWYRQAPGKERELVATISTTGAGTYYADSVKGRFTISRDNAKTTVYLQMNILKPEDTAVFYCAKDGKASRDDAEYYYWGQGTQVTVSS	low polyreactivity
QVQLVESGGGLVQAGGSLRLSCAASGRTFLVYALGWYRQAPGKERELVAGITSGGGTYYADSVKGRFTISRDNAMNTVYLQINSLKPEETAVYYCAKYRWYGVYWGQVTQVTVSS	low polyreactivity
QVQLVESGGGLVQAGGSLRISCAASGIIFKGYAMGWYRQAPGKERELVAAISHNADSTYADSVKGRFTISRDNAKNTVYLQMNSLNPEDTAVYYCNADTPLRSDYWGQGTQVTVSS	low polyreactivity
